Results on 2 substances are retold here after patent US20120058906A1.

The target of experiment [1] is rHuman Erythropoietin R/Fc Chimera, CF (R&D Systems Cat#963-ER) (human) (UniProt P19235). Kind of experiment: ECL (MSD multi-spot), antigen spotted on plate; Fab 200 nM; blank 1659.
The target of experiment [2] is rHuman ErbB2/Fc Chimera, CF (R&D Systems Cat#1129-ER) (human) (UniProt P04626). Described as above.
Experiment [3] concerns the target rHuman CD44/Fc Chimera, CF (R&D Systems Cat#3660-CD) (human) (UniProt P16070). Described as above.
For experiment [4], the target named is rHuman Notch-1/Fc Chimera, CF (R&D Systems Cat#3647-TK) (human) (UniProt P46531). The experiment is described as above.
The target of experiment [5] is rHuman P-Cadherin/Fc Chimera, CF (R&D Systems Cat#861-PC) (human) (UniProt P22223). The description is as above.
Experiment [6] has as its target rHuman Erythropoietin R/Fc Chimera, CF (R&D Systems Cat#963-ER) (human) (UniProt P19235). Put plainly: ECL (MSD multi-spot), antigen spotted on plate; Fab […]; blank 428.
Experiment [7] has as its target rHuman ErbB2/Fc Chimera, CF (R&D Systems Cat#1129-ER) (human) (UniProt P04626). The experiment is described as above.
In experiment [8] the target is rHuman CD44/Fc Chimera, CF (R&D Systems Cat#3660-CD) (human) (UniProt P16070). The description is as above.
The target in experiment [9] is rHuman Notch-1/Fc Chimera, CF (R&D Systems Cat#3647-TK) (human) (UniProt P46531). The description is as above.
Experiment [10] deals with rHuman P-Cadherin/Fc Chimera, CF (R&D Systems Cat#861-PC) (human) (UniProt P22223). The description is as above.
Experiment [11] addresses rHuman Erythropoietin R/Fc Chimera, CF (R&D Systems Cat#963-ER) (human) (UniProt P19235). Put plainly: ECL (MSD multi-spot), antigen spotted on plate; Fab 1.6 nM; blank 648.
In experiment [12] the target is rHuman ErbB2/Fc Chimera, CF (R&D Systems Cat#1129-ER) (human) (UniProt P04626). The experiment is described as above.
Experiment [13] addresses rHuman CD44/Fc Chimera, CF (R&D Systems Cat#3660-CD) (human) (UniProt P16070). The description is as above.
For experiment [14], the target named is rHuman Notch-1/Fc Chimera, CF (R&D Systems Cat#3647-TK) (human) (UniProt P46531). Described as above.
For experiment [15], the target named is rHuman P-Cadherin/Fc Chimera, CF (R&D Systems Cat#861-PC) (human) (UniProt P22223). Described as above.
Experiment [16] addresses rHuman Erythropoietin R/Fc Chimera, CF (R&D Systems Cat#963-ER) (human) (UniProt P19235). Put plainly: ECL (MSD multi-spot), antigen spotted on plate; Fab 8 nM; blank 1188.
Experiment [17] addresses rHuman ErbB2/Fc Chimera, CF (R&D Systems Cat#1129-ER) (human) (UniProt P04626). The experiment is described as above.
Experiment [18] has as its target rHuman CD44/Fc Chimera, CF (R&D Systems Cat#3660-CD) (human) (UniProt P16070). The experiment is described as above.
Experiment [19] concerns the target rHuman Notch-1/Fc Chimera, CF (R&D Systems Cat#3647-TK) (human) (UniProt P46531). The description is as above.
Experiment [20] concerns the target rHuman P-Cadherin/Fc Chimera, CF (R&D Systems Cat#861-PC) (human) (UniProt P22223). The description is as above.
The target of experiment [21] is rHuman Erythropoietin R/Fc Chimera, CF (R&D Systems Cat#963-ER) (human) (UniProt P19235). Put plainly: ECL (MSD multi-spot), antigen spotted on plate; Fab 1000 nM; blank 2142.
In experiment [22] the target is rHuman ErbB2/Fc Chimera, CF (R&D Systems Cat#1129-ER) (human) (UniProt P04626). Described as above.
Experiment [23] addresses rHuman CD44/Fc Chimera, CF (R&D Systems Cat#3660-CD) (human) (UniProt P16070). The description is as above.
The target of experiment [24] is rHuman Notch-1/Fc Chimera, CF (R&D Systems Cat#3647-TK) (human) (UniProt P46531). The description is as above.
The target in experiment [25] is rHuman P-Cadherin/Fc Chimera, CF (R&D Systems Cat#861-PC) (human) (UniProt P22223). The experiment is described as above.
Experiment [26] has as its target rHuman Erythropoietin R/Fc Chimera, CF (R&D Systems Cat#963-ER) (human) (UniProt P19235). Kind of experiment: ECL (MSD multi-spot), antigen spotted on plate; Fab 40 nM; blank 1229.
Experiment [27] has as its target rHuman ErbB2/Fc Chimera, CF (R&D Systems Cat#1129-ER) (human) (UniProt P04626). Described as above.
Experiment [28] has as its target rHuman CD44/Fc Chimera, CF (R&D Systems Cat#3660-CD) (human) (UniProt P16070). The experiment is described as above.
The target of experiment [29] is rHuman Notch-1/Fc Chimera, CF (R&D Systems Cat#3647-TK) (human) (UniProt P46531). Described as above.
The target in experiment [30] is rHuman P-Cadherin/Fc Chimera, CF (R&D Systems Cat#861-PC) (human) (UniProt P22223). The experiment is described as above.
Experiment [31] shares this target. Kind of experiment: ECL (MSD Multi-Spot) binding assay, antigen spotted on plate; Fab 154 nM; blank spot 447.
For experiment [32] the target is unchanged. Kind of experiment: ECL (MSD Multi-Spot) binding assay, antigen spotted on plate; Fab 17 nM; blank spot 143.
The target is the same in experiment [33]. Kind of experiment: ECL (MSD Multi-Spot) binding assay, antigen spotted on plate; Fab 6 nM; blank spot 191.
Experiment [34] has the same target. Kind of experiment: ECL (MSD Multi-Spot) binding assay, antigen spotted on plate; Fab 51 nM; blank spot 335.

Chain of rHuman Erythropoietin R/Fc Chimera, CF (R&D Systems Cat#963-ER) (human) (P19235 25-250, change not shown): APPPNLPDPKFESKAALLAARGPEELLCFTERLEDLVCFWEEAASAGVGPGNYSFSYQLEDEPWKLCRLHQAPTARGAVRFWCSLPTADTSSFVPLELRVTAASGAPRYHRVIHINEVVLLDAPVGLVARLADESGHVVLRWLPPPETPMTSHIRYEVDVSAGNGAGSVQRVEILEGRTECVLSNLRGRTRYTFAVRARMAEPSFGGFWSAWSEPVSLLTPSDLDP

Consider “Fab VH1-46_IGHD6-6*01_IGHJ1*01_S104A & L6_IGKJ1*01”, for which the ECL signal in experiment [1] was found to be 4000; in [2], 4040; in experiment [3], 3190; in experiment [4], 5700; in experiment [5], 3990; in experiment [6] it was 739. Besides, the ECL signal in [7] worked out at 766; in experiment [8], 684; in experiment [9], 739; in experiment [10], 649; in [11], 1120; in experiment [12], 1170. Moreover, the ECL signal came out at 1020 in experiment [13]; 1170 in experiment [14]; 1140 in experiment [15]; 1980 in experiment [16]; 1900 in experiment [17]; 1490 in experiment [18]. The ECL signal in experiment [19] worked out at 2200; in experiment [20] it was 1920; in experiment [21], 8290; in experiment [22] it was 7420; in experiment [23] it was 4730; in experiment [24], 8060. Also, the ECL signal was 5630 in experiment [25]; 3510 in experiment [26]; 2230 in [27]; 2680 in experiment [28]; 3480 in experiment [29]; 2600 in experiment [30].

For “Fab VH5-51_IGHD5-18*01>3_IGHJ4*01 & V3-4_IGLJ1*01”, the ECL signal in [31] is 1730; in experiment [32], 542; in experiment [33] it was 358; in [34], 854.
